{
  "source": "patent US20110165624A1",
  "about": "(REGENTS OF THEUNIVERSITY OF MICHIGAN, published 2011)",
  "proteins": {"B1": {"name": "Mocr protein (monomeric Ocr, F53R and V77D) as produced from the pMCSG7 vector (pMocr) (other)", "chain": "MHHHHHHSSGVDLAMSNMTYNNVFDHAYEMLKENIRYDDIRDTDDLHDAIHMAADNAVPHYYADIRSVMASEGIDLEFEDSGLMPDTKDDIRILQARIYEQLTIDLWEDAEDLLNEYLEEVEEYEEDEEGTENLYFQSNICSG", "notes": "[…]; The predicted molecular weight is 16.7 kDa; also called synthetic Mocr"}},
  "biological_target": "the molecule itself",
  "assay": "size exclusion chromatography, Superdex 75, non-denaturing; self-association (dimerization)",
  "data": [
    {"protein": "B1", "values": [
      {"measurement": "binding result", "value": "no binding"}
    ]}
  ]
}
